This note sets out measurements from US20250376519A1 (JIANGSU HENGRUI PHARMACEUTICALS, published 2025).

Assay [1] deals with T1, human DLL3 on cells (human, UniProt Q9NYJ7 27-618).
T1 sequence: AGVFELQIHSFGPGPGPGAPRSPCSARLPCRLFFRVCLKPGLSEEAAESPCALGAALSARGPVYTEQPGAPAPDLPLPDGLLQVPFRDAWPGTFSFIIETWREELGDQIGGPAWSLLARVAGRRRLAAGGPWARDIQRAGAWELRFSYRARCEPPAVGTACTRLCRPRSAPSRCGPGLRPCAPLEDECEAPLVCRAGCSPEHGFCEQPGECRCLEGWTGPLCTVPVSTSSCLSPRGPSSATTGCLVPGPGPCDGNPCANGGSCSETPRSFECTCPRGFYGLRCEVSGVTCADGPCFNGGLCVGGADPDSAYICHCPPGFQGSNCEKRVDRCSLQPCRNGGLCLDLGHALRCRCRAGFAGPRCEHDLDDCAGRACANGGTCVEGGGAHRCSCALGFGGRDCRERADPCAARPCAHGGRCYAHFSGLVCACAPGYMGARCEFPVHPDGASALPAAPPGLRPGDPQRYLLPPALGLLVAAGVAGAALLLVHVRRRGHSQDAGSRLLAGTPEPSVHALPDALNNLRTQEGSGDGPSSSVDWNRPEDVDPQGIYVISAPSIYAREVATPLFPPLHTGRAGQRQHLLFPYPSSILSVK
Briefly: cell-based or functional assay.

The target in assay [2] is T1, human DLL3 on cells. As to the kind of experiment: cell-based or functional assay. The source holds these as a separate data set.
Assay [3] addresses T1, human DLL3 on cells. As to the kind of experiment: cell-based or functional assay. The source holds these as a separate data set.
The target in assay [4] is T1, human DLL3 on cells. As to the kind of experiment: flow cytometry, hDLL3/CHO-s cells. Here is the method: The plates were centrifuged at 300 g for 5 min, and the supernatant was removed. Different concentrations of test antibodies were added at 100 μL/well. The plates were incubated in the dark in a refrigerator at 4° C. for 1 h. After 3 centrifugal washes at 300 g, working concentrations of APC anti-human IgG Fc (BioLegend, 410712) or PE F(ab′)2-goat anti-human IgG (invitrogen, H10104) were added. The plates were incubated in the dark in a refrigerator at 4° C. for 40 min. After 3 centrifugal washes at 300 g, the geometric mean fluorescence intensity was measured on an Invitrogen flow cytometer, and the EC50 values for the binding of the antibodies to DLL3-expressing cells were calculated.
(A flow cytometer gives signals particle by particle.)

Another assay deals with T2, DLL1 (ACRO, DL1-H52H8) (human, UniProt O00548 18-540).
T2 construct: Bought; also called human DLL1
T2 sequence: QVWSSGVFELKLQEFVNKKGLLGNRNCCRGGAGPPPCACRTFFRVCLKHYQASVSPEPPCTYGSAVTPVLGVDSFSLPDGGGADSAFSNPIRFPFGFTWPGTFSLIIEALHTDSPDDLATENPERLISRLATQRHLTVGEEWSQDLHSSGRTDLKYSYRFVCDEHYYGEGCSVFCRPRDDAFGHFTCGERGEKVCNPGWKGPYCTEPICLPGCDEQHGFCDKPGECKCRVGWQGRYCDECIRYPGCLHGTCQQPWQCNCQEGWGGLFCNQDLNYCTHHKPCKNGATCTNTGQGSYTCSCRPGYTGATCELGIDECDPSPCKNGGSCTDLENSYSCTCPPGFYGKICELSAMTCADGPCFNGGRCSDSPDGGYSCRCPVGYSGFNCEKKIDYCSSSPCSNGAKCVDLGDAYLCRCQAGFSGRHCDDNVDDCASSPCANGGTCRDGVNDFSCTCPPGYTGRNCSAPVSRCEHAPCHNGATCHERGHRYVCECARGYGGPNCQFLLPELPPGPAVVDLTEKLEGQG
As to the kind of experiment: ELISA, DLL1 coated at 1 µg/mL, detection with anti-human IgG (H+L)-HRP, OD450. Here is the method:
DLL1 (ACRO, DL1-H52H8, 1 μg/mL) and DLL4 (ACRO, DL4-H5227, 1 μg/mL) were plated at 100 μL/well, and the plates were incubated overnight at 4° C. The plates were washed 3 times with 250 μL of PBST solution (PBS containing 0.1% Tween 20) per well. The plates were blocked with 250 μL of 5% milk per well at 37° C. for 2 h. The plates were washed 3 times with 250 μL of PBST solution per well. Test antibodies (maximum concentration 100 nM, serially diluted 4-fold) were added, and the plates were incubated at 37° C. for 1 h. The plates were washed 6 times with 250 μL of PBST solution per well. […] The plates were washed 6 times with 250 μL of PBST solution per well. TMB (KPL, 5120-0077) substrate solution was added at 100 μL/well, and color development was performed at room temperature for 5-10 min. 1 M H₂SO₄ was added at 100 μL/well to stop the color development, and microplate reader (Molecular Devices, VERSA max) readings at 450 nm were taken.
In general terms: ELISA stands for enzyme-linked immunosorbent assay.

The target of assay [5] is T3, human CD3D&3E (ACRO, CDD-H52W1) (human, UniProt P04234 22-105; P07766 23-126).
T3 construct: bought CD3 delta/epsilon protein
As to the kind of experiment: SPR Biacore 8K, Ab captured on Protein A. The method, boiled down: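 Antibodies captured on a Protein A chip for 18 s; DLL3 or CD3D&3E antigen flowed 180 s, then 600 s dissociation, with real-time detection. Regeneration used 10 mM glycine-HCl pH 1.5 between cycles. Kinetics were obtained by 1:1 model fitting.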

For orientation: EC50 means the concentration that produces a half-maximal response. A lower EC50 goes with an effect from little substance. For orientation: Kd means the equilibrium constant for the complex coming apart. For orientation: koff means the first-order rate constant of dissociation. Read a low koff as a long-lived complex. A word on the kon: it is the rate constant with which the complex forms.

T3 sequence (P04234 22-105, chain 1 of 2): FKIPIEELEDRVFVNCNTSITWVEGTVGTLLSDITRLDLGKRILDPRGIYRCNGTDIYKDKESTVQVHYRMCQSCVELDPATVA
T3 sequence (P07766 23-126, chain 2 of 2): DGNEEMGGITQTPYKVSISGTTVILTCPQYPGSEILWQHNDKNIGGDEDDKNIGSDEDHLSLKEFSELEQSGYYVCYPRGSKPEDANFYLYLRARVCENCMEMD

B1: hu110-I2C-Y body (bispecific antibody)
light: NIVMTQSPKSLAVSLGERATINCKASENVGIFVSWYQQKPGQSPKLLIYGASNRYTGVPDRFSGSGSATDFTLTISSLQAEDVADYYCGQSHSYPLTFGQGTKLEIKRTVAAPSVFIFPPSDEQLKSGTASVVCLLNNFYPREAKVQWKVDNALQSGNSQESVTEQDSKDSTYSLSSTLTLSKADYEKHKVYACEVTHQGLSSPVTKSFNRGEC
heavy: EVQLVQSGAEVKKPGASVKVSCKTSGYTFTDYYMNWVRQAPGQSLEWMGIINPYQGGTSYTQKFKGRVTITVDKSASTAYMELSSLRSEDTAVYYCARHFYDSSYLTYSTMDYWGQGTTVTVSSASTKGPSVFPLAPSSKSTSGGTAALGCLVKDYFPEPVTVSWNSGALTSGVHTFPAVLQSSGLYSLSSVVTVPSSSLGTQTYICNVNHKPSNTKVDKKVEPKSCDKTHTCPPCPAPEAAGGPSVFLFPPKPKDTLMISRTPEVTCVVVDVSHEDPEVKFNWYVDGVEVHNAKTKPREEQYNSTYRVVSVLTVLHQDWLNGKEYKCKVSNKALPAPIEKTISKAKGQPREPQVCTLPPSREEMTKNQVSLSCAVKGFYPSDIAVEWESNGQPENNYKTTPPVLDSDGSFFLVSKLTVDKSRWQQGNVFSCSVMHEALHNHYTQKSLSLSPGK
chain: not shown
notes: Format 2 (Y body: DLL3 Fab-Fc hole + CD3 scFv-Fc knob)
For B1, in the assay with human DLL3 on cells [1], the “IC50, PBMC killing of SHP77/lucG cells” value turned out to be 0.0338 nM and the “Imax (%), PBMC killing of SHP77/lucG cells” value came to 100%. Also, in the assay with human DLL3 on cells [2], the “IC50, PBMC killing of H1184/lucG cells” value was 0.00642 nM and the “Imax (%), PBMC killing of H1184/lucG cells” value turned out to be 98%. Further, the “EC50, Jurkat Lucia NFAT reporter with H82/DLL3 cells” value with human DLL3 on cells [3] stood at 0.00636 nM. For the same molecule, the EC50 in the assay with human DLL3 on cells [4] was determined as 4.52 nM. Besides, in the assay with DLL1 (ACRO, DL1-H52H8), the binding result is reported as “no binding”.

B2: hu110-S107E-hot Ig (bispecific antibody)
light 1: NIVMTQSPKSLAVSLGERATINCKASENVGIFVSWYQQKPGQSPKLLIYGASNRYTGVPDRFSGSGSATDFTLTISSLQAEDVADYYCGQSHSYPLTFGQGTKLEIKGGGGSSGAPRFLTRPKASVVSVGKDATLSCQIVGNPFPQVSWEKDKQPVTAGVRFRLAQDGDLYRLKILDLQLSDSGQYVCRARNAHGEAFACLGLQVDAEA
heavy 1: EVQLVQSGAEVKKPGASVKVSCKTSGYTFTDYYMNWVRQAPGQSLEWMGIINPYQGGTSYTQKFKGRVTITVDKSASTAYMELSSLRSEDTAVYYCARHFYDSSYLTYSTMDYWGQGTTVTVSSGGGGSGIPPKIECLPIDISIDEGKVLTVASAFTGEPTPEVTWSTGGRKIHSQEQGRFHIENTDDSTTLTIKDVQKQDGGLYTLTLRNEFGSDSATVNIHIRSIDKTHTCPPCPAPEAAGGPSVFLFPPKPKDTLMISRTPEVTCVVVDVSHEDPEVKFNWYVDGVEVHNAKTKPREEQYNSTYRVVSVLTVLHQDWLNGKEYKCKVSNKALPAPIEKTISKAKGQPREPQVCTLPPSREEMTKNQVSLSCAVKGFYPSDIAVEWESNGQPENNYKTTPPVLDSDGSFFLVSKLTVDKSRWQQGNVFSCSVMHEALHNHYTQKSLSLSPGK
heavy 2: not shown
light 2: not shown
notes: Format 1 (Hot-Ig, Titin/Obscurin-replaced DLL3 Fab), DLL3 x CD3
Consider B2, for which, in the assay with human DLL3 on cells [2], the “IC50, PBMC killing of H1184/lucG cells” value came out at 0.0295 nM and the “Imax (%), PBMC killing of H1184/lucG cells” value was 92%. In the assay with human DLL3 on cells [3], the “EC50, Jurkat Lucia NFAT reporter with H82/DLL3 cells” value was 0.0177 nM and the “Fold changes in activation, Jurkat Lucia NFAT reporter with H82/DLL3 cells” value came to 18 fold. The molecule also registered a concentration for a half-maximal effect (EC50) with human DLL3 on cells [4] of 5.07 nM. In assay [5], this molecule had a Kd of 46.7 nM, a koff of 0.00749 s⁻¹ and an on-rate constant (kon) of 160000 M⁻¹ s⁻¹. Besides, the binding result in the assay with DLL1 (ACRO, DL1-H52H8) is recorded as “no binding”.

B3: hu110-I2C-hot Ig (bispecific antibody)
light 1: B2 light 1
heavy 1: B2 heavy 1
heavy 2: not shown
light 2: not shown
notes: as for B2
For B3, in the assay with human DLL3 on cells [1], the “IC50, PBMC killing of SHP77/lucG cells” value was found to be 0.0222 nM and the “Imax (%), PBMC killing of SHP77/lucG cells” value stood at 96%. Besides, the EC50 with human DLL3 on cells [4] was found to be 4.91 nM. In the assay with DLL1 (ACRO, DL1-H52H8), the binding result is recorded as “no binding”.
